From patent US20160161500A1, “METHOD OF SCREENING AN ANTIBODY” (SAMSUNG ELECTRONICS CO., LTD., priority 2014, published 2016)
Values belong to the binder of their own block, whether it stands above or below them.

Biological target: T1, c-Met on EBC-1 cells (UniProt P08581 25-1390, limits assumed)
T1 construct: whole, on cells; EBC-1 is a human lung cancer line; also called c-Met on the cell surface
Assay: flow cytometry on EBC-1 cells; antibody bound at pH 7.4, cells fixed, then buffers of pH 1.5 to 7.4
Procedure: In order to examine the degree of influence of pH conditions on the binding of anti-c-Met antibody and c-Met, the antibody was reacted with c-Met to form a binding therebetween, and then, treated with buffer with various pH to change the pH conditions, and then, the amount of the antibody which maintain the binding to the antigen (c-Met) at a certain pH was measured.
In particular, EBC-1 cells (ATCC) were counted and seeded in e-tubes at the amount of about 3×10⁵ cells per tube. As a medium, RPMI-1640 (Gibco) was employed. The cell culture was washed with phosphate buffer saline (PBS; pH 7.4) to remove the medium, and treated with each of c-Met antibodies A, B, and C, and c-Met bispecific antibody A, provided in Example 1, at the amount of 1 μg/ml per a tube, and then, kept in ice for 30 minutes. The obtained cells were treated with 4% formaldehyde for 10 minutes to be fixed. After washing with PBS(pH7.4), the cells treated with FACS buffer with various pH (0.2%(v/v) FBS (Fetal bovine serum) in PBS, pH 1.5, 2.0, 2.5, 3.0, 4.0, 5.0, 6.0, or 7.4) and kept in ice for 5 minutes. […] The c-Met antibody attached to cell surface was quantified by Flow cytometry (BD, FACS Cantoll).

T1 sequence (P08581 25-1390 limits assumed): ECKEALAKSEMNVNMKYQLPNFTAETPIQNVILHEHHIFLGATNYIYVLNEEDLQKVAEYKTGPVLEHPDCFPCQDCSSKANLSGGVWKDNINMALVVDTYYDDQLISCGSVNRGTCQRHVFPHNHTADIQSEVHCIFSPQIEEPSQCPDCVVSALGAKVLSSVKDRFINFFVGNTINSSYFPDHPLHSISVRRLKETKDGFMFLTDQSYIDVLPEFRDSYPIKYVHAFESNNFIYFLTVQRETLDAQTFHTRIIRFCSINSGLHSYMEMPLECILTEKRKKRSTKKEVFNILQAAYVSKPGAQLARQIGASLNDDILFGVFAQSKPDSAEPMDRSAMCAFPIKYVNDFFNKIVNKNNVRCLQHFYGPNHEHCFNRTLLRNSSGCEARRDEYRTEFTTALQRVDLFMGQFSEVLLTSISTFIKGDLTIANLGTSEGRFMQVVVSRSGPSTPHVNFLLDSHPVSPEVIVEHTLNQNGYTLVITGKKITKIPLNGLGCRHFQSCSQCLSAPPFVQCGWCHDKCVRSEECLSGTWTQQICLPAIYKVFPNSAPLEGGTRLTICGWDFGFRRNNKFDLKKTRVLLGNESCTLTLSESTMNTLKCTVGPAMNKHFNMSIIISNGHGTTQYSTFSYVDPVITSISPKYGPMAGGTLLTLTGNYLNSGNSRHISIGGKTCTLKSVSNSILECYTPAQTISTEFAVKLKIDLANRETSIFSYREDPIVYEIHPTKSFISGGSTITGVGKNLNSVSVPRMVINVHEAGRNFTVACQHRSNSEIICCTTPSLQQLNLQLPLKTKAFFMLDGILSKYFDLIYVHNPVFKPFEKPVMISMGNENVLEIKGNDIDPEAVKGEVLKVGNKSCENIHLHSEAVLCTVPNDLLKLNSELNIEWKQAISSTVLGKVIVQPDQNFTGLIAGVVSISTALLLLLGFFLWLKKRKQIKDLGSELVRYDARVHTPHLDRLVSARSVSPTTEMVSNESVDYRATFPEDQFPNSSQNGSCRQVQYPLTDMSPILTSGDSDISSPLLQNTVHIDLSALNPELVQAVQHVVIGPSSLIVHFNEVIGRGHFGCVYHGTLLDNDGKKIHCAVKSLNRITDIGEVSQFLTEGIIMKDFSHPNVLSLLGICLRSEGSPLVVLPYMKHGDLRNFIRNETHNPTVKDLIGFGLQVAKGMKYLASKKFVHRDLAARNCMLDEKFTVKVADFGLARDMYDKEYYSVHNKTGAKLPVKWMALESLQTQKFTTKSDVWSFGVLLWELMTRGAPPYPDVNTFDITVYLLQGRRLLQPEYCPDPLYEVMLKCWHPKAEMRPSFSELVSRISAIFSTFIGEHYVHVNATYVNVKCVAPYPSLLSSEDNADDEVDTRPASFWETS

binding result: binds
B1: Anti-c-Met antibody A (antibody, human IgG2, kappa, V domains shown)
VH: EVQLVESGGGLVQPGGSLRLSCAASGFTFTDYYMSWVRQAPGKGLEWLGFIRNKANGYTTEYSASVKGRFTISRDNSKNTLYLQMNSLRAEDTAVYYCARDNWFAYWGQGTLVTVSS
VL: DIQMTQSPSSLSASVGDRVTITCKSSQSLLASGNQNNYLAWYQQKPGKAPKMLIIWASTRVSGVPSRFSGSGSGTDFTLTISSLQPEDFATYYCQQSYSRPYTFGQGTKVEIKR
notes: IgG2 antibody

binding result: binds
B2: Anti-c-Met/anti-EGFR bispecific antibody A (bispecific antibody, human IgG2, kappa)
heavy: EVQLVESGGGLVQPGGSLRLSCAASGFTFTDYYMSWVRQAPGKGLEWLGFIRNKANGYTTEYSASVKGRFTISRDNSKNTLYLQMNSLRAEDTAVYYCARDNWFAYWGQGTLVTVSSASTKGPSVFPLAPCSRSTSESTAALGCLVKDYFPEPVTVSWNSGALTSGVHTFPAVLQSSGLYSLSSVVTVPSSNFGTQTYTCNVDHKPSNTKVDKTVERKCCVECPPCPAPPVAGPSVFLFPPKPKDTLMISRTPEVTCVVVDVSHEDPEVQFNWYVDGVEVHNAKTKPREEQFNSTFRVVSVLTVVHQDWLNGKEYKCKVSNKGLPAPIEKTISKTKGQPREPQVYTLPPSREEMTKNQVSLTCLVKGFYPSDIAVEWESNGQPENNYKTTPPMLDSDGSFFLYSKLTVDKSRWQQGNVFSCSVMHEALHNHYTQKSLSLSPGKGGGGSGGGGSEVQLLESGGGLVQPGGSLRLSCAASGFTFSNYDMSWVRQAPGKCLEWVSGISHSSGSKYYADSVKGRFTISRDNSKNTLYLQMNSLRAEDTAVYYCAKDATPRPLKPFDYWGQGTLVTVSSGGGGSGGGGSGGGGSQSVLTQPPSASGTPGQRVTISCTGSSSNIGNNDVSWYQQLPGTAPKLLIYDDNKRPSGVPDRFSGSKSGTSASLAISGLRSEDEADYYCGSWDASLNAYVFGCGTKLTVLG
light: DIQMTQSPSSLSASVGDRVTITCKSSQSLLASGNQNNYLAWYQQKPGKAPKMLIIWASTRVSGVPSRFSGSGSGTDFTLTISSLQPEDFATYYCQQSYSRPYTFGQGTKVEIKRTVAAPSVFIFPPSDEQLKSGTASVVCLLNNFYPREAKVQWKVDNALQSGNSQESVTEQDSKDSTYSLSSTLTLSKADYEKHKVYACEVTHQGLSSPVTKSFNRGEC
notes: Anti-c-Met antibody A (IgG2) with an anti-EGFR scFv (VH-linker-VL) linked to the C-terminus of its Fc; also called c-Met bispecific antibody A
